Results from the nanobody polyreactivity screen of Harvey et al. (2022).

Experiment: yeast display, Sf9 membrane polyspecificity reagent, FACS + sequencing; frameworks hold sequencing errors
In short: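 A nanobody's polyreactivity label depends on the gate it was sorted from. Yeast display cells were stained with 10% biotinylated, detergent-solubilized Sf9 membrane reagent for 1 hour at 4 °C, enriched on streptavidin microbeads and sorted by FACS. The low and high (top ~1%) gates were set on anti-HA fluorescence for expression and streptavidin fluorescence for reagent binding.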
In the case of “QVQLVEAGGGLVQAGGSLRLSCAASGYTFGPNAMGWYRQAPGKEREFVAAISWSGTSTYYADYVKGRFTISRDNAKNTDYLQMNSLKPEDTAVYYCAARSYRYVSRREYWGQGTLVTVSS”, the “polyreactivity (PSR sort gate)” value is reported as “high polyreactivity”. For “QVQLVEAGGGLVQAGGSLRLSCASSGRIFNLYAMALYRQAPGKERELVAAINWSGDRTSYADSVKGRFTISRDNAKNTVYLQMNSLKPEDTAVYYCAAEYGLGDDTAYGYWGQGTQVTVSS”, the “polyreactivity (PSR sort gate)” value was “low polyreactivity”. For “QVQLVEAGGGLVQAGGSLRLSGAASGSIFDYNAMGWYRQAPGKERELVASISYSGGSTYYADSVKGRFTISRDTAKNTVYLQMNSLKPEDTAVYYCNARFYWRWHTAYDYWGQGTQVTVSS”, the “polyreactivity (PSR sort gate)” value was “high polyreactivity”. For “QVQLVEAGGRLVQAGGSLRLSCAASGITFTYYAMGGYRQPPGKDMELVAAISWSGGSTDYADSVKGRFTISRDNAKNTVYLQMNSLKPEDTAFYYCAATFSRFAYYYWGQGTPVTVSS”, the “polyreactivity (PSR sort gate)” value was “high polyreactivity”. In the case of “QVQLVEAGRGLVHAGCSLRLSCASSGNIFANYSMGWYRQAPGKERELVAAIRWSASRTYYADSVKGRFTISRDNAMNTVYLQMNSLKPEDTAVYYCAATIDTLWDYYYDYWGQGSQVTVSS”, the “polyreactivity (PSR sort gate)” value is reported as “high polyreactivity”. In the case of “QVQLVELGGGLVQAGGILRLSCAASGSIFSWNDMGWYRQAPGKERELVAAITSGGSTYYADSVKGRFTISRDNAKNTVYLQMNSLKPEDTAVYYCAAGQDLHDFDYWGQGTQVTVSS”, the “polyreactivity (PSR sort gate)” value is reported as “low polyreactivity”. With “QVQLVELGGGLVQAGGSLRLSCAASGSTFEVYAMGWYRQAPGKERELVAVINVSDGSTYYADSVKGRFTISRDNAKNTVYLQMNSLKPEDTAVYYCAAYRKGKLRMEYWGQGTQVTVSS” the “polyreactivity (PSR sort gate)” value was “low polyreactivity”. In the case of “QVQLVERGGGLVQAGGSLRLSCAASGRIFYVNTMGCYRQAPGKERELVATISSAASTNYADSVKGRFTISRDHAKNTVYLQMNSLKPEETAVYYCNAALYKEYYYWGQGTQVTVSS”, the “polyreactivity (PSR sort gate)” value is reported as “low polyreactivity”. For “QVQLVESAAGLVQAGASLRLSCAASGRTSTQNAMGWYRQAPGKERELVAAITTGGGSTYYADSVKGRFTISRDNAKYTVYLQMNSLKPEDTAVYYCAARTPQRSEWTQYGYWGQGTQVTVSS”, the “polyreactivity (PSR sort gate)” value was “low polyreactivity”. In the case of “QVQLVESAAGLVQAGGSLRLSCAASGITFFQYTMGWYRQAPGKERELVAAISTSGARTYYADSVKGRFTISRDNAKNTVYLQMNSLKPEDTAVYYCAARTWRRPYYRPRYEYWAQGTQVTVSS”, the “polyreactivity (PSR sort gate)” value is reported as “high polyreactivity”. For “QVQLVESAAGLVQAGGSLRLSCAASGRTFQYNAIGWYRQAPGKETELVAAISSSGGSTYYADSVKGRFTISRDNAKNTVYLQLNSLKPEDTAVYYCNAYSQSWNFYGDGDYWGQGTQVTVSS”, the “polyreactivity (PSR sort gate)” value was “low polyreactivity”. With “QVQLVESAAGLVQAGGSLRLSGAASGRIFRYYAMGCYRQAPGKEREFVAGITWSGGRTYYADSVKGRFTISRANAKNTVYLQMNTLKREDTAVYYCAADGWGYSFQWQDHDYWGQGTQVTVSS” the “polyreactivity (PSR sort gate)” value was “low polyreactivity”. For “QVQLVESAGGGVQAGGSLRLSCPASGIIFVPNTMGWYRQAPGKEREFVASISRRGGNTNYADSVKGRFTISRDNAKNTVYLQMNSLKPEDTAVYYCAKYSSSEGKYDYWGQGTQVTVSS”, the “polyreactivity (PSR sort gate)” value was “high polyreactivity”. With “QVQLVESAGGIVQAGGSLRLRCAASGRTVVNSMGWYRQAPGKERELVAAISTNGGRTYYADSVKWRFTISRDNAKNTVYLQMNSLKPEDTAVYYCAKVLGIRPTYYYWGQGYQVTVSS” the “polyreactivity (PSR sort gate)” value was “high polyreactivity”. For “QVQLVESAGGLDQAGGSLPLSCAASGRIFRYNAMGWYRQAPGKERELVSAITWNGASTFYADSVKGRFTISRDNAKNSVYLLMNSLKPEDTAVYYCAYVRDFSGYWLWSYNLYDYWGQGTKVTVSS”, the “polyreactivity (PSR sort gate)” value was “high polyreactivity”. In the case of “QVQLVESAGGLDQAGGSLRLSCAASGFTFSVYVMGWYRQAPGKERELVASISKRGGSTTYADSVKGRFTISRDNAKNTVYLQMNSLKPEDTAVYYCAALGPGYYWGQGTQVTVSS”, the “polyreactivity (PSR sort gate)” value is reported as “high polyreactivity”. With “QVQLVESAGGLGQAGGSLRLSCAASGRIIVRNTMGWYRQAPGKDRELVARITGRGGTTYYADSVKGRFTISRDYAKNPVYFQMNSLKPEDTADYYCKAGKYLRLDPVGPNYSRKYGYWGQGTQVTVSS” the “polyreactivity (PSR sort gate)” value was “low polyreactivity”. With “QVQLVESAGGLLQTGGSLRLSCAASGRTLWYNAMGWYRQAPGKERELVAAISSGGSTNYADSVKGRFTISRDNAKHTVYLQMNSLKPEDTAVYYCAAWLAYSSRYGYWGQGTQVTVSS” the “polyreactivity (PSR sort gate)” value was “low polyreactivity”. For “QVQLVESAGGLVKAGGSLRLSCAAYGSTFSYYTMGWYRQAPGKERELVAAITRRGDSTYADSVKGRFTISRDNAKNTVYLQMNSLKPEDTAVYYCAADASVGVSGMDYWGQGTQVTVSS”, the “polyreactivity (PSR sort gate)” value was “low polyreactivity”. In the case of “QVQLVESAGGLVLAGGSLRLSCAASGYTVVRYAMGWYRQEPGKERELVAAISRSGGSTYYADSVKGRFTISRDNANNTVYLQMNSLNPEDTAVYYCNAYPYSYYDYDYWGQGTQVTVSS”, the “polyreactivity (PSR sort gate)” value is reported as “high polyreactivity”. For “QVQLVESAGGLVQAGARLRLSCAASGFTFQYYALGWYRQAPGKERELVATISTSGGNTYYADSVKGRFTITRDNAKNTVYLQMNSLKPEDTAVYYCAARRYRASSRGYGYWGQGTQVTVSS”, the “polyreactivity (PSR sort gate)” value was “high polyreactivity”. With “QVQLVESAGGLVQAGGCLRLSCAACGSIFLYNAMGWYRQAPVKERELVAGITGGGGTNYADSVKGRFTISRDNAKNTVYLQMNSLKPEDTAVYYCAADPSGQFPYSYYNYDYDYWGQGTQVTVSS” the “polyreactivity (PSR sort gate)” value was “low polyreactivity”. In the case of “QVQLVESAGGLVQAGGILRLSCAASGRIFPYYDMGWYRQAPGKERELVAAITWNGGSTYYADSVKGRFTISRDNANNTVYLQMNSLKPEDTAVYYCAVEPYYYGEDYWGQGTQVTVSS”, the “polyreactivity (PSR sort gate)” value is reported as “low polyreactivity”. In the case of “QVQLVESAGGLVQAGGRLRLSCAASGSTFGIYAMGWYRQAPGKERELVAAISSGGSTNYADSVKGRFTISRDNAKNTVYLQMNSLKPEDTAVYYCAVESVYEYGGYVDSAYDYWGQGTQVTVSS”, the “polyreactivity (PSR sort gate)” value is reported as “low polyreactivity”. With “QVQLVESAGGLVQAGGSHRLSCAASGNIFYYYRMGWYRQEPGKESEFVAAISTSGGNTYYADSVKGRFTISRDNAKNTVYLQINSLKPEDTAVYYCAADDWPWGDAGVDYWGQGTQVTVSS” the “polyreactivity (PSR sort gate)” value was “low polyreactivity”. For “QVQLVESAGGLVQAGGSHRLSCPASGSIFDYNPMGWYTQAPGKESELVAAITSGGSTNYADSVKGRFTISRDNAKNTVYLHMNSLKPEDTAVYYCAADHDYYPSNLDFWGQGTQVTVSS”, the “polyreactivity (PSR sort gate)” value was “low polyreactivity”. With “QVQLVESAGGLVQAGGSLRLICAASGSIFVKYAMGWYRQATGKERELVAAISRSGGSTYYADSVKGRFTISRDNAKNTVYLQMTSLKPEDTAVYYCAADGFRGDMYYWGQGTQVTVSS” the “polyreactivity (PSR sort gate)” value was “low polyreactivity”. With “QVQLVESAGGLVQAGGSLRLICAASGSIVASYPKGWYRQAPGKERELVAAISDGGGRTYYADSVKGRFTISRDNAKNTVYLQMNSLKPEDTAVYYCAAYAVYTYRRARVYWGQGTQVTVSS” the “polyreactivity (PSR sort gate)” value was “high polyreactivity”. In the case of “QVQLVESAGGLVQAGGSLRLICDASGSTFGYYAIGWYRQAPGKEREVVAVINKSGGRTYYADSVKGRFTISRDNAKNTVYLQMNSLNPVDTAVYFCATRVTSTRHDYWGQGTQVTVSS”, the “polyreactivity (PSR sort gate)” value is reported as “high polyreactivity”. In the case of “QVQLVESAGGLVQAGGSLRLSCAASGIILYYYAMGWYRHAPGKERELVAAISSGGNTYYADSVKGRFTISRDNAKNTVYLQMNSLKPEDTAVYYCAAVTVIGGEYDYWGQGTQVTVSS”, the “polyreactivity (PSR sort gate)” value is reported as “low polyreactivity”.
